Measurements published in doi:10.1101/2024.08.29.610189 (bioRxiv, 2024).

T1: Atg17–Atg29–Atg31 complex, wild type (S. cerevisiae (budding yeast), UniProt Q06410 1-417; Q12092 1-213; Q12421 1-196)
T1 sequence (looked up) 1: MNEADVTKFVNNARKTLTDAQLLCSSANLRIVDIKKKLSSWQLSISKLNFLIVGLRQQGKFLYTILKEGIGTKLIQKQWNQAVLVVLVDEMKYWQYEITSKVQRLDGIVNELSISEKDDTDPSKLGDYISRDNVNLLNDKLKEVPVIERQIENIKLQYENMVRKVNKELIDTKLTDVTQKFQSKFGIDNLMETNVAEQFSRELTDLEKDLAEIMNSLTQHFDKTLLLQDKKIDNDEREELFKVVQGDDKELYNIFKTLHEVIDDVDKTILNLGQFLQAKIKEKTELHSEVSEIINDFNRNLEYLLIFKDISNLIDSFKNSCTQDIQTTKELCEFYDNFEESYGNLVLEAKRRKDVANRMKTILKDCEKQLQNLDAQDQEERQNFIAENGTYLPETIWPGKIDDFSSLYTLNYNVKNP
T1 sequence (looked up) 2: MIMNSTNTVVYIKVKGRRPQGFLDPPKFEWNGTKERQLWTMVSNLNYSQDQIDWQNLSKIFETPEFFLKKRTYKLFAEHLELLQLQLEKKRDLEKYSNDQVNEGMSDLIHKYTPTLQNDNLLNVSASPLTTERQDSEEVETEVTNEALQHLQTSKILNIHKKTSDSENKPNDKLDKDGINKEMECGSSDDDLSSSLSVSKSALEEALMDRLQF
T1 sequence (looked up) 3: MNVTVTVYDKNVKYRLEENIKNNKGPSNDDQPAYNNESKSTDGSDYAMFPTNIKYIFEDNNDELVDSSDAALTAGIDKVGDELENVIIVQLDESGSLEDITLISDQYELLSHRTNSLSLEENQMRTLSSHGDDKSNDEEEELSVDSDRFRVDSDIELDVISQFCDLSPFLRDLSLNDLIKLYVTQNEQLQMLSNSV


Assays:
[1] = biological target: Atg17–Atg31C (residues 174–196) complex (S. cerevisiae (budding yeast), UniProt Q06410 1-417; Q12421 174-196); assay: ITC
[2] = biological target: T1, Atg17–Atg29–Atg31 complex, wild type; assay: pull-down

Kd [1] [µM]	binding result [2]	Binder
3.8	–	TVQNRLELFSRRLSQLGLASD (domain or fragment, S. cerevisiae (budding yeast), UniProt P38316 42-62, looked up) [Atg12^17BH–mGFP, wild type (Atg12 residues 42–62 with C-terminal mGFP)]
–	binds	TVQNRLELASRRLSQLGLASD (domain or fragment, S. cerevisiae (budding yeast), UniProt P38316 42-62, looked up) [GST–Atg12^17BH F50A]
